Experimental findings from article PMC12746902, “Pathogenic Gαo Mutants Drive Dominant GPCR Coupling in GNAO1 Encephalopathies” (The FASEB Journal, 2025) are described below.

Bounds are passed on as bounds.

In assay [1] the target is M2 muscarinic acetylcholine receptor with C-terminal split-YFP fragment YN (M2R-YN) (UniProt P08172).
Assay [2] has the same target. The source holds these as a separate data set.
The target in assay [3] is T1, M2 muscarinic acetylcholine receptor with C-terminal split-YFP fragment YN (M2R-YN) (UniProt P08172 1-466).
T1 sequence (looked up): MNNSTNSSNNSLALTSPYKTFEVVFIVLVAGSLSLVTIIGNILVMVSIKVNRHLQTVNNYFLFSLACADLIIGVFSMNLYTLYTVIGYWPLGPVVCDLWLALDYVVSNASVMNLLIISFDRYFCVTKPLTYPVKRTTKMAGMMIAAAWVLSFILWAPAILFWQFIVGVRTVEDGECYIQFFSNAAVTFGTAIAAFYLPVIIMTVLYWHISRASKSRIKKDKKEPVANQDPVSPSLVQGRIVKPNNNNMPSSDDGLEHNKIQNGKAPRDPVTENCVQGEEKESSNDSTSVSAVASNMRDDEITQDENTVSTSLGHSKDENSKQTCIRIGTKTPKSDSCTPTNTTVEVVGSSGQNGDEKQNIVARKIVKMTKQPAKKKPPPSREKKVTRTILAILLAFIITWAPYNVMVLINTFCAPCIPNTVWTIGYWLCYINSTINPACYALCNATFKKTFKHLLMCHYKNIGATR
The experiment in a line: cell-based or functional assay.

As for “Gαo ins4A (four-alanine insertion in the C-terminal α5-helix) with internal split-YFP fragment YC at Gly92 (from UniProt P09471 1-354) (natural protein)”, in assay [1], the reduction of ACh-mediated M2R phosphorylation (pT307/pS309 relative to total M2R) in immunoprecipitated split-YFP complexes, 100 μM ACh for 5 min was more than 90%. In assay [2], this molecule showed a reduction of ACh-mediated phosphorylation (pT307/pS309 relative to total receptor) of immunoprecipitated GFP-M2R with co-expressed UNTAGGED Gαo ins4A, 100 μM ACh for 5 min of 95%.

B1: Gαo T241_N242insPQ with internal split-YFP fragment YC at Gly92 (natural protein, UniProt P09471 1-354, looked up)
chain: MGCTLSAEERAALERSKAIEKNLKEDGISAAKDVKLLLLGAGESGKSTIVKQMKIIHEDGFSGEDVKQYKPVVYSNTIQSLAAIVRAMDTLGIEYGDKERKADAKMVCDVVSRMEDTEPFSAELLSAMMRLWGDSGIQECFNRSREYQLNDSAKYYLDSLDRIGAADYQPTEQDILRTRVKTTGIVETHFTFKNLHFRLFDVGGQRSERKKWIHCFEDVTAIIFCVALSGYDQVLHEDETTPQNRMHESLMLFDSICNNKFFIDTSIILFLNKKDLFGEKIKKSPLTICFPEYTGPNTYEDAAAYIQAQFESKNRSPNKEIYCHMTCATDTNNIQVVFDAVTDIIIANNLRGCGLY
As for B1, the “reduction of ACh-mediated phosphorylation (pT307/pS309 relative to total receptor) of immunoprecipitated GFP-M2R with co-expressed UNTAGGED Gαo insPQ, 100 μM ACh for 5 min” value in assay [3] turned out to be 30%.
